Measured values as given in article PMC7736794.

B1: Flag-USP36 wild type [not stated] / Myc-PrimPol WT [not stated] (parent)
chain 1: MPIVDKLKEALKPGRKDSADDGELGKLLASSAKKVLLQKIEFEPASKSFSYQLEALKSKYVLLNPKTEGASRHKSGDDPPARRQGSEHTYESCGDGVPAPQKVLFPTERLSLRWERVFRVGAGLHNLGNTCFLNATIQCLTYTPPLANYLLSKEHARSCHQGSFCMLCVMQNHIVQAFANSGNAIKPVSFIRDLKKIARHFRFGNQEDAHEFLRYTIDAMQKACLNGCAKLDRQTQATTLVHQIFGGYLRSRVKCSVCKSVSDTYDPYLDVALEIRQAANIVRALELFVKADVLSGENAYMCAKCKKKVPASKRFTIHRTSNVLTLSLKRFANFSGGKITKDVGYPEFLNIRPYMSQNNGDPVMYGLYAVLVHSGYSCHAGHYYCYVKASNGQWYQMNDSLVHSSNVKVVLNQQAYVLFYLRIPGSKKSPEGLISRTGSSSLPGRPSVIPDHSKKNIGNGIISSPLTGKRQDSGTMKKPHTTEEIGVPISRNGSTLGLKSQNGCIPPKLPSGSPSPKLSQTPTHMPTILDDPGKKVKKPAPPQHFSPRTAQGLPGTSNSNSSRSGSQRQGSWDSRDVVLSTSPKLLATATANGHGLKGNDESAGLDRRGSSSSSPEHSASSDSTKAPQTPRSGAAHLCDSQETNCSTAGHSKTPPSGADSKTVKLKSPVLSNTTTEPASTMSPPPAKKLALSAKKASTLWRATGNDLRPPPPSPSSDLTHPMKTSHPVVASTWPVHRARAVSPAPQSSSRLQPPFSPHPTLLSSTPKPPGTSEPRSCSSISTALPQVNEDLVSLPHQLPEASEPPQSPSEKRKKTFVGEPQRLGSETRLPQHIREATAAPHGKRKRKKKKRPEDTAASALQEGQTQRQPGSPMYRREGQAQLPAVRRQEDGTQPQVNGQQVGCVTDGHHASSRKRRRKGAEGLGEEGGLHQDPLRHSCSPMGDGDPEAMEESPRKKKKKKRKQETQRAVEEDGHLKCPRSAKPQDAVVPESSSCAPSANGWCPGDRMGLSQAPPVSWNGERESDVVQELLKYSSDKAYGRKVLTWDGKMSAVSQDAIEDSRQARTETVVDDWDEEFDRGKEKKIKKFKREKRRNFNAFQKLQTRRNFWSVTHPAKAASLSYRR
chain 2: MNRKWEAKLKQIEERASHYERKPLSSVYRPRLSKPEEPPSIWRLFHRQAQAFNFVKSCKEDVHVFALECKVGDGQRIYLVTTYAEFWFYYKSRKNLLHCYEVIPENAVCKLYFDLEFNKPANPGADGKKMVALLIEYVCKALQELYGVNCSAEDVLNLDSSTDEKFSRHLIFQLHDVAFKDNIHVGNFLRKILQPALDLLGSEDDDSAPETTGHGFPHFSEAPARQGFSFNKMFTEKATEESWTSNSKKLERLGSAEQSSPDLSFLVVKNNMGEKHLFVDLGVYTRNRNFRLYKSSKIGKRVALEVTEDNKFFPIQSKDVSDEYQYFLSSLVSNVRFSDTLRILTCEPSQNKQKGVGYFNSIGTSVETIEGFQCSPYPEVDHFVLSLVNKDGIKGGIRRWNYFFPEELLVYDICKYRWCENIGRAHKSNNIMILVDLKNEVWYQKCHDPVCKAENFKSDCFPLPAEVCLLFLFKEEEEFTTDEADETRSNETQNPHKPSPSRLSTGASADAVWDNGIDDAYFLEATEDAELAEAAENSLLSYNSEVDEIPDELIIEVLQE

Variants of: B1
Assay: co-immunoprecipitation (anti-Flag agarose beads), immunoblot band quantification
Conditions: with Myc-PrimPol WT; USP36 stably knocked-down HEK293T cells; HU (10 mM) for 8 h; parent: 1.6; read off a plot; scale: relative band intensity

response | Variant
1.6 | chain 1 K329R K338R

Same assay, conditions: with Myc-PrimPol WT; USP36 stably knocked-down HEK293T cells; untreated (Ctrl); parent: 1; read off a plot; scale: relative band intensity

response | Variant
1.6 | chain 1 K329R K338R
